According to patent US20190352395A1 (REDWOOD BIOSCIENCE, published 2019):

Target: T1, CD22-Fc (R&D Systems Cat. No. 1968SL) (human, UniProt P20273 20-687)
T1 construct: Bought reagent; also called CD22 antigen; huCD22-Fc; not shown: Fc part of the bought fusion
T1 sequence (looked up): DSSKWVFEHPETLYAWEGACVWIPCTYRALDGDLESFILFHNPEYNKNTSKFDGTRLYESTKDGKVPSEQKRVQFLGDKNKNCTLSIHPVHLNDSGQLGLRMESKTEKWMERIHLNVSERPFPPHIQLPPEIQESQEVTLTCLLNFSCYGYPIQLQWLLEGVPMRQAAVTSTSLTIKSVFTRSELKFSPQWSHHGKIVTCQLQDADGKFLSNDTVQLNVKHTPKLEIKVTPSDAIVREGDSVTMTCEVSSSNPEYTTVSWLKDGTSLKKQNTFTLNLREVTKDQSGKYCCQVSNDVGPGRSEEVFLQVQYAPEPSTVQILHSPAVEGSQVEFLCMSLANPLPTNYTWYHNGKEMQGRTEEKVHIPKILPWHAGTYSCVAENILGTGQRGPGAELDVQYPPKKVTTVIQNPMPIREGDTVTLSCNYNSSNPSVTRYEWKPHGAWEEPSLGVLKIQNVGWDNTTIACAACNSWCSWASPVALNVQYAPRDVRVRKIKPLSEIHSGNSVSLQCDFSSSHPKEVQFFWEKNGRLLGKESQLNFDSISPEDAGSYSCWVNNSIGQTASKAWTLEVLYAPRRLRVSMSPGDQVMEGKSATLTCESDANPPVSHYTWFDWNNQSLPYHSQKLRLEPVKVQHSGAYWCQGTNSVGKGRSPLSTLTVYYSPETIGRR
Assay: competition ELISA on coated CD22-Fc; competitor biotinylated chimeric RFB4
Experimental: 96 well MaxiSorp plates (Nunc) were coated with 1.0 μg/ml CD22-Fc (R&D Systems Cat. No. 1968SL) in Dulbecco's PBS (PAA Laboratories, Yeovil, UK) (60 μl final volume) at 4° C. overnight. Plates were blocked with Dulbecco's PBS-2% BSA for 1 hour at room temperature. Plates were washed 3 times with wash buffer (0.05% Tween20 in Dulbecco's-PBS). […] All samples were tested in duplicate. Plates were incubated for 1 h at room temperature and washed 3 times with wash buffer. 60 μl of a 1 in 1000 dilution of Streptavidin horse radish peroxidase (HRP) (Sigma-Aldrich) was added and incubated for 1 hour at room temperature. Plates were washed 3 times with wash buffer and 60 μl of 3,3′,5,5′-tetramethybenzidine (TMB) substrate (Invitrogen) was added and incubated at room temperature in the dark to allow the colour to develop. The reaction was stopped by adding 50 μl of 3M HCl. Plates were read at 450 nm using Dynex plate reader.

B1: humanized RFB4 antibody VH6/VK2 (antibody, human IgG1, V domains shown)
VH: EVQLVESGGGLVKPGGSLKLSCAASGFAFSIYDMSWVRQAPGKGLEWVAYISSGGGTTYYPDTVKGRFTISRDNAKNSLYLQMSSLRAEDTAMYYCARHSGYGSSYGVLFAYWGQGTLVTVSS
VL: DIQMTQSPSSLSASVGDRVTITCRASQDISNYLNWYQQKPGKAVKLLIYYTSILHSGVPSRFSGSGSGTDYTLTISSLQPEDFATYFCQQGNTLPWTFGGGTKVEIK
IC50 relative to Chimeric RFB4 IgG1: 1 relative to Chimeric RFB4 IgG1

B2: humanized RFB4 antibody VH3/VK1 (antibody, human IgG1, V domains shown)
VH: EVQLVESGGGLVKPGGSLKLSCAASGFAFSIYDMSWVRQAPGKGLEWVAYISSGGGTTYYPDTVKGRFTISRDNAKNTLYLQMSSLRAEDTAMYYCARHSGYGSSYGVLFAYWGQGTLVTVSS
VL: DIQMTQSPSSLSASVGDRVTITCRASQDISNYLNWYQQKPGKAVKLLIYYTSILHSGVPSRFSGSGSGTDYTLTISSLQQEDFATYFCQQGNTLPWTFGGGTKVEIK
IC50 relative to Chimeric RFB4 IgG1: 0.8 relative to Chimeric RFB4 IgG1

B3: humanized RFB4 antibody VH3/VK2 (antibody, human IgG1, V domains shown)
VH: EVQLVESGGGLVKPGGSLKLSCAASGFAFSIYDMSWVRQAPGKGLEWVAYISSGGGTTYYPDTVKGRFTISRDNAKNTLYLQMSSLRAEDTAMYYCARHSGYGSSYGVLFAYWGQGTLVTVSS
VL: DIQMTQSPSSLSASVGDRVTITCRASQDISNYLNWYQQKPGKAVKLLIYYTSILHSGVPSRFSGSGSGTDYTLTISSLQPEDFATYFCQQGNTLPWTFGGGTKVEIK
IC50 relative to Chimeric RFB4 IgG1: 1 relative to Chimeric RFB4 IgG1

B4: humanized RFB4 antibody VH3/VK4 (antibody, human IgG1, V domains shown)
VH: EVQLVESGGGLVKPGGSLKLSCAASGFAFSIYDMSWVRQAPGKGLEWVAYISSGGGTTYYPDTVKGRFTISRDNAKNTLYLQMSSLRAEDTAMYYCARHSGYGSSYGVLFAYWGQGTLVTVSS
VL: DIQMTQSPSSVSASVGDRVTITCRASQDISNYLNWYQQKPGKAPKLLIYYTSILHSGVPSRFSGSGSGTDYTLTISSLQPEDFATYFCQQGNTLPWTFGGGTKVEIK
IC50 relative to Chimeric RFB4 IgG1: 1.1 relative to Chimeric RFB4 IgG1

B5: humanized RFB4 antibody VH4/VK1 (antibody, human IgG1, V domains shown)
VH: EVQLVESGGGLVKPGGSLRLSCAASGFAFSIYDMSWVRQAPGKGLEWVAYISSGGGTTYYPDTVKGRFTISRDNAKNSLYLQMSSLRAEDTAMYYCARHSGYGSSYGVLFAYWGQGTLVTVSS
VL: DIQMTQSPSSLSASVGDRVTITCRASQDISNYLNWYQQKPGKAVKLLIYYTSILHSGVPSRFSGSGSGTDYTLTISSLQQEDFATYFCQQGNTLPWTFGGGTKVEIK
IC50 relative to Chimeric RFB4 IgG1: 0.9 relative to Chimeric RFB4 IgG1

B6: humanized RFB4 antibody VH4/VK2 (antibody, human IgG1, V domains shown)
VH: EVQLVESGGGLVKPGGSLRLSCAASGFAFSIYDMSWVRQAPGKGLEWVAYISSGGGTTYYPDTVKGRFTISRDNAKNSLYLQMSSLRAEDTAMYYCARHSGYGSSYGVLFAYWGQGTLVTVSS
VL: DIQMTQSPSSLSASVGDRVTITCRASQDISNYLNWYQQKPGKAVKLLIYYTSILHSGVPSRFSGSGSGTDYTLTISSLQPEDFATYFCQQGNTLPWTFGGGTKVEIK
IC50 relative to Chimeric RFB4 IgG1: 1.1 relative to Chimeric RFB4 IgG1

B7: humanized RFB4 antibody VH4/VK4 (antibody, human IgG1, V domains shown)
VH: EVQLVESGGGLVKPGGSLRLSCAASGFAFSIYDMSWVRQAPGKGLEWVAYISSGGGTTYYPDTVKGRFTISRDNAKNSLYLQMSSLRAEDTAMYYCARHSGYGSSYGVLFAYWGQGTLVTVSS
VL: DIQMTQSPSSVSASVGDRVTITCRASQDISNYLNWYQQKPGKAPKLLIYYTSILHSGVPSRFSGSGSGTDYTLTISSLQPEDFATYFCQQGNTLPWTFGGGTKVEIK
IC50 relative to Chimeric RFB4 IgG1: 1 relative to Chimeric RFB4 IgG1

B8: humanized RFB4 antibody VH5/VK1 (antibody, human IgG1, V domains shown)
VH: EVQLVESGGGLVKPGGSLKLSCAASGFAFSIYDMSWVRQAPGKGLEWVAYISSGGGTTYYPDTVKGRFTISRDNAKNSLYLQMNSLRAEDTAMYYCARHSGYGSSYGVLFAYWGQGTLVTVSS
VL: DIQMTQSPSSLSASVGDRVTITCRASQDISNYLNWYQQKPGKAVKLLIYYTSILHSGVPSRFSGSGSGTDYTLTISSLQQEDFATYFCQQGNTLPWTFGGGTKVEIK
IC50 relative to Chimeric RFB4 IgG1: 0.9 relative to Chimeric RFB4 IgG1

B9: humanized RFB4 antibody VH5/VK2 (antibody, human IgG1, V domains shown)
VH: EVQLVESGGGLVKPGGSLKLSCAASGFAFSIYDMSWVRQAPGKGLEWVAYISSGGGTTYYPDTVKGRFTISRDNAKNSLYLQMNSLRAEDTAMYYCARHSGYGSSYGVLFAYWGQGTLVTVSS
VL: DIQMTQSPSSLSASVGDRVTITCRASQDISNYLNWYQQKPGKAVKLLIYYTSILHSGVPSRFSGSGSGTDYTLTISSLQPEDFATYFCQQGNTLPWTFGGGTKVEIK
IC50 relative to Chimeric RFB4 IgG1: 1 relative to Chimeric RFB4 IgG1

B10: humanized RFB4 antibody VH5/VK4 (antibody, human IgG1, V domains shown)
VH: EVQLVESGGGLVKPGGSLKLSCAASGFAFSIYDMSWVRQAPGKGLEWVAYISSGGGTTYYPDTVKGRFTISRDNAKNSLYLQMNSLRAEDTAMYYCARHSGYGSSYGVLFAYWGQGTLVTVSS
VL: DIQMTQSPSSVSASVGDRVTITCRASQDISNYLNWYQQKPGKAPKLLIYYTSILHSGVPSRFSGSGSGTDYTLTISSLQPEDFATYFCQQGNTLPWTFGGGTKVEIK
IC50 relative to Chimeric RFB4 IgG1: 1 relative to Chimeric RFB4 IgG1

B11: humanized RFB4 antibody VH6/VK1 (antibody, human IgG1, V domains shown)
VH: EVQLVESGGGLVKPGGSLKLSCAASGFAFSIYDMSWVRQAPGKGLEWVAYISSGGGTTYYPDTVKGRFTISRDNAKNSLYLQMSSLRAEDTAMYYCARHSGYGSSYGVLFAYWGQGTLVTVSS
VL: DIQMTQSPSSLSASVGDRVTITCRASQDISNYLNWYQQKPGKAVKLLIYYTSILHSGVPSRFSGSGSGTDYTLTISSLQQEDFATYFCQQGNTLPWTFGGGTKVEIK
IC50 relative to Chimeric RFB4 IgG1: 0.9 relative to Chimeric RFB4 IgG1

B12: humanized RFB4 antibody VH6/VK4 (antibody, human IgG1, V domains shown)
VH: EVQLVESGGGLVKPGGSLKLSCAASGFAFSIYDMSWVRQAPGKGLEWVAYISSGGGTTYYPDTVKGRFTISRDNAKNSLYLQMSSLRAEDTAMYYCARHSGYGSSYGVLFAYWGQGTLVTVSS
VL: DIQMTQSPSSVSASVGDRVTITCRASQDISNYLNWYQQKPGKAPKLLIYYTSILHSGVPSRFSGSGSGTDYTLTISSLQPEDFATYFCQQGNTLPWTFGGGTKVEIK
IC50 relative to Chimeric RFB4 IgG1: 1 relative to Chimeric RFB4 IgG1
